The values below come from US20260022160A1 (AFFYXELL THERAPEUTICS, published 2026).

Where “and” joins values, the source holds several entries; their conditions need not be identical. Identical values can stand only once.

The target in test [1] is T1, human Mega CD40L recombinant protein (Enzo Lifesciences) (human, UniProt P29965 116-261).
T1 sequence (looked up): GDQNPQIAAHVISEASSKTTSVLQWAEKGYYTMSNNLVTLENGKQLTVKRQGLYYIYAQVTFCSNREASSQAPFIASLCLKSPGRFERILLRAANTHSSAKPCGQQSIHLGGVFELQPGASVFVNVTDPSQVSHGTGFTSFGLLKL
In words: cell-based or functional assay.

Test [2] has as its target T1, human Mega CD40L recombinant protein …. In words: cell-based or functional assay. The source holds these as a separate data set.
In test [3] the target is T2, recombinant human CD40L (R&D Systems, 6420-CL-025/CF) (human, UniProt P29965 108-261, limits assumed).
T2 sequence (looked up): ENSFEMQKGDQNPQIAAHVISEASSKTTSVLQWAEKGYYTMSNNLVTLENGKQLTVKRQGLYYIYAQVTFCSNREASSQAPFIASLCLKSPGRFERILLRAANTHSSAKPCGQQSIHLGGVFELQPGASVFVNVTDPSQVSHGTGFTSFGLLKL
In words: binding ELISA, plate-coated recombinant human CD40L, concentrated culture fluid; first-named of the two gene-introduced cell lines (two promoters); promoter not told. The method, then:
(§1) Each cell line was inoculated into a T175 flask at a cell density of 4.0×10³ cells/cm² using a culture medium. After culture at 37° C. and 5% CO₂ for 18 to 24 hours, the culture medium was thoroughly replaced with a fresh culture medium every 2 days, followed by culture. After culture for 3 days, the cells were harvested, and 7.0×10⁶ cells were inoculated into a T175 flask, followed by culture at 37° C. and 5% CO₂ for 18 to 24 hours. The culture medium was thoroughly removed, and the remaining medium was completely removed through washing with 10 mL of MEM alpha. 30 mL of an MEM alpha medium was added to a T175 flask, followed by culture for 48 hours. After 48 hours, all of the cell culture fluid was harvested and then centrifuged to remove residual cells and impurities. The cell culture fluid was transferred to a Vivaspin 20 and centrifuged, the culture fluid was concentrated, and the stefin A protein variant was quantified through sandwich ELISA (LSBio, LS-F4620). […] The unbound stefin A protein variant was removed through washing, after which the extent of binding between the stefin A protein variant and CD40L was detected based on a difference in absorbance resulting from reaction with a TMB substrate.
(In general: In an ELISA, binding on a coated surface is turned into a signal by an enzyme label.)

The target of test [4] is T2, recombinant human CD40L (R&D Systems, …). In words: binding ELISA, plate-coated recombinant human CD40L, concentrated culture fluid; second-named of the two gene-introduced cell lines (two promoters); promoter not told. The method, then: as §1
Test [5] concerns the target T3, human CD40L (human, UniProt P29965 113-261, limits assumed).
T3 sequence (looked up): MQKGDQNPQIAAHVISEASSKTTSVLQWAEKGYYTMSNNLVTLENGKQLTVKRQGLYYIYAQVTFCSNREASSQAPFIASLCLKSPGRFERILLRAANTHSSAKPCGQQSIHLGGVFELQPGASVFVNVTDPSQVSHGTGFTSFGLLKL
The test is described as follows: cell-based or functional assay.

Test [6] concerns the target T3, human CD40L. In words: ELISA on plate-coated hCD40L, no HSA, detection with anti-cystatin antibody, OD 450-630 nm. The method, then:
After a last washing step, TMB was added for the development of the experiment and the plates were read at 450 nm. The EC50 was then calculated using the interpolated non-linear four-parameters standard curve (FIG. 12C).

Another test deals with T4, human serum albumin (human, UniProt P02768 25-609).
T4 construct: also called HSA
The test is described as follows: bridging ELISA: binder captured on plate-coated hCD40L, HSA 10 uM, bound HSA detected with anti-HSA antibody. The method, then:
(§2) After saturation with 5% casein/PBS buffer, the plates were washed and a dilution of Stefin A protein variant or controls was incubated with HSA at a final concentration of 10 μM for 90 minutes. Plates were then washed, and a […], anti-HSA (HRP-conjugated) (Abcam), was added for 90 minutes. After a last washing step, TMB was added for the development of the experiment and the plates were read at 450 nm. The EC50 was then calculated using the interpolated non-linear four-parameters standard curve (FIG. 12C).

Test [7] has as its target T3, human CD40L. The test is described as follows: bridging ELISA: capture on plate-coated hCD40L, HSA 10 uM, detection with anti-HSA antibody, OD 450-630 nm. The method, then: as §2
Test [8] concerns the target T3, human CD40L. The test is described as follows: ELISA on plate-coated hCD40L in the presence of HSA (10 uM), detection with anti-cystatin antibody, OD 450-630 nm.
Test [9] addresses T3, human CD40L. The test is described as follows: competitive ELISA: hCD40L (1 nM) premixed with the binder and added to plate-coated rhCD40 Fc; bound hCD40L detected with biotinylated anti-hCD40L polyclonal antibody. The method, then: To evaluate the avidity of the different formats, a CD40L competitive ELISA was performed. Briefly, the plates were coated with rhCD40 Fc at 1 μg/ml and incubated overnight at 4° C. The plates were washed twice with 150 μl of washing buffer (PBS, Tween 20 0.1%) with a plate washer and saturated with Casein 5% (Sigma) in PBS for 90 minutes at room temperature (25±1° C.). […] The resulting solution was then mixed and added to the plates. The plates were washed 3 times as described previously. […] The plates were incubated for 90 minutes at room temperature (25±1° C.). The plates were then washed. PolyHRP-Streptavidin was then diluted in dilution buffer and added to the plates. The plates were incubated an additional 90 minutes at room temperature (25±1° C.). Plates were washed 3 times as described previously and the substrate (TMB, Pierce Thermo-Scientific) was added in the plate for 10 minutes. The reaction was stopped using an acidic solution and the plates were read at 450-630 nm and the resulting percent inhibition was calculated.

T4 sequence (P02768 25-609): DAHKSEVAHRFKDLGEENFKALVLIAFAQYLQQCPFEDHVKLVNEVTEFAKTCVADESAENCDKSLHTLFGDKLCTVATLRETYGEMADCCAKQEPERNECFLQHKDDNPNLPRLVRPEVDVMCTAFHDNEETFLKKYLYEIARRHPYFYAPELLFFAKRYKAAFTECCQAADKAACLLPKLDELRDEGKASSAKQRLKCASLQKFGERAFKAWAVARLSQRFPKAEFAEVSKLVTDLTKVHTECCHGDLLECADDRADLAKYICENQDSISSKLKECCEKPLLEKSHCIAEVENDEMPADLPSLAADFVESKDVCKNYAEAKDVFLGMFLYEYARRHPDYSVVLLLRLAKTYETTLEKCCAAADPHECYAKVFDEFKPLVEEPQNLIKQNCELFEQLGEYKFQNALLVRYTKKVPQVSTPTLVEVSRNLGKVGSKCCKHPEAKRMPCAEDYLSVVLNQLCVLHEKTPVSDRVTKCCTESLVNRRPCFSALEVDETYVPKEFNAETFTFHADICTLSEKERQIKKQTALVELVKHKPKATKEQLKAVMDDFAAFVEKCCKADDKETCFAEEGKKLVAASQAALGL

B1: XT75 anti-CD40L stefin A protein variant secreted by gene-introduced MSC (eMSC) (designed binder)
chain: IPGGLSEAKPATPEIQEIVDKVKPQLEEKTGETYGKLEAVQYKTQVVHYYVHYNDQGTNYYIKVRAGDNKYMHLKVFKSLWGENLFAKWEDLVLTGYQVDKNKDDELTGFAEAAAKEAAAKEAAAKEAAAKEAAAKEAAAKMIPGGLSEAKPATPEIQEIVDKVKPQLEEKTGETYGKLEAVQYKTQVVHYYVHYNDQGTNYYIKVRAGDNKYMHLKVFKSLWGENLFAKWEDLVLTGYQVDKNKDDELTGFAEAAAKEAAAKEAAAKEAAAKEAAAKEAAAKMIPGGLSEAKPATPEIQEIVDKVKPQLEEKTGETYGKLEAVQYKTQVVHYYVHYNDQGTNYYIKVRAGDNKYMHLKVFKSLWGENLFAKWEDLVLTGYQVDKNKDDELTGFAEAAAKEAAAKEAAAKEAAAKEAAAKEAAAKMIPRGLSEAKPATPEIQEIVDKVKPQLEEKTGETYGKLEAVQYKTQVLANFFQRRWPGSTNYYIKVRAGDNKYMHLKVFNGPWKFRNTDRGADRVLTGYQVDKNKDDELTGF
notes: also called eMSC (XT75, w/EF1A); eMSC (XT75, w/CBh)
For B1, the “IC50, HEK-Blue CD40L cell assay” value in test [1] was 0.303 nM and 0.4 nM. For the same molecule, the “IC50 (read off the curve)” value in [2] is ~0.3 nM and ~0.4 nM. In addition, the EC50 in [3] is 0.0039 nM; in [4] it was 0.0053 nM.

B2: clone-230 XT75 (trimer with a rigid linker and an HSA binding stefin A protein variant) (designed binder)
chain: IPGGLSEAKPATPEIQEIVDKVKPQLEEKTGETYGKLEAVQYKTQVVHYYVHYNDQGTNYYIKVRAGDNKYMHLKVFKSLWGENLFAKWEDLVLTGYQVDKNKDDELTGFAEAAAKEAAAKEAAAKEAAAKEAAAKEAAAKMIPGGLSEAKPATPEIQEIVDKVKPQLEEKTGETYGKLEAVQYKTQVVHYYVHYNDQGTNYYIKVRAGDNKYMHLKVFKSLWGENLFAKWEDLVLTGYQVDKNKDDELTGFAEAAAKEAAAKEAAAKEAAAKEAAAKEAAAKMIPGGLSEAKPATPEIQEIVDKVKPQLEEKTGETYGKLEAVQYKTQVVHYYVHYNDQGTNYYIKVRAGDNKYMHLKVFKSLWGENLFAKWEDLVLTGYQVDKNKDDELTGFAEAAAKEAAAKEAAAKEAAAKEAAAKEAAAKMIPRGLSEAKPATPEIQEIVDKVKPQLEEKTGETYGKLEAVQYKTQVLANFFQRRWPGSTNYYIKVRAGDNKYMHLKVFNGPWKFRNTDRGADRVLTGYQVDKNKDDELTGF
notes: also called AFX01-230 XT75
Consider B2, for which the figures for the “IC50 (read off the curve)” value with human CD40L [5] and in the test with human CD40L [9] were roughly 8 nM and roughly 4 nM, respectively. For the same molecule, the values for the EC50 with human CD40L [6], in the test with human CD40L [7] and in the test with human CD40L [8] were 0.02 nM, 0.41 nM and 0.04 nM, respectively. For the same molecule, the binding result with human serum albumin is “binds”.

The term EC50 denotes the concentration that produces a half-maximal response.
